# B1: Pistol ribozyme (parent)
# chain: GGGUCGUUGUUCCAUAAUCGCGUGGAUAUGGCACGCAAGUUUCUACCGGGCACCGUAAAUGUCCGACUGGAGCCGUUCGGGCGGCUAUAAACAGACCUCAGGCCCGAAGCGUGGCGGCACCUGCCGCCGGUGGUAAAAAAGAUCGGAAGAGCACACGUCU
# Variants of: B1
# Experiment: aptazyme ON/OFF ratio, guanine; higher = stronger switching; co-transcriptional cleavage with and without guanine
row,Variant,aptazyme ON/OFF ratio
1,U7G U8C U10G U11C C13U,1.4
2,U7G U8G C13A,1.4
3,U7G U8G C13U,1.7
4,U7G U8G C13G,1.42
5,U7G U8G G9A U10A U11A C12U C13G,1.13
6,U7G U8G G9A U10A U11A C12U C13A,1.03
7,U7G U8G G9A U10A U11A C12U C13U,1.24
8,U7G U8C U11C C12U C13A,1.34
9,U7G U8C U11C C12U C13G,1.3
10,U7G U8C U11C C12U C13U,1.45
11,U7G U8C U10C U11A C12U,1.39
12,U7G U8G G9A U10G U11A C12A C13A,1.12
13,U7G U8G G9A U10G U11A C12A C13U,1.18
14,U7G U8G G9A U10G U11A C12A C13G,1.04
15,U7G U8C U10G U11A C12A C13U,1.12
16,U7G U8C U10G U11A C12A C13G,1.1
17,U7G U8C U10G U11A C12A C13A,1.11
18,U7G U8G G9A U10C U11C C12U C13A,1.04
19,U7G U8G G9A U10C U11C C12U C13U,1.13
20,U7G U8G G9A U10C U11C C12U C13G,1.36
21,U7G U8G G9A U10C C12A,1.46
22,U7G U8G G9A U10C C12U,1.59
23,U7G U8G G9A U10C C12G,1.28
24,U7G U8G G9A U10A C12A C13A,1.2

row,Variant,aptazyme ON/OFF ratio
1,U7G U8G G9A U10A C12A C13G,1.04
2,U7G U8G G9A U10A C12A C13U,1.06
3,U7G U8G G9A U10C U11C C12A,1.22
4,U7G U8G G9A U10C U11C C12U,1.1
5,U7G U8G G9A U10C U11C C12G,1.21
6,U7G U8C U10C U11G C12G,1.15
7,U7G U8C U10C U11G C12U,1.3
8,U7G U8C U10C U11G C12A,1.24
9,U7G U8C U10C U11A C12G C13U,1.2
10,U7G U8C U10C U11A C12G C13G,1.21
11,U7G U8C U10G U11G C13A,1.22
12,U7G U8C U10G U11G C13G,1.26
13,U7G U8C U10G U11G C13U,1.3
14,U7G U8G G9A U10G C12U C13A,1.25
15,U7G U8G G9A U10G C12U C13G,1.31
16,U7G U8G G9A U10G C12U C13U,1.17
17,U7G U8G G9A U10C U11A C12G C13U,1.17
18,U7G U8G G9A U10C U11A C12G C13A,1.04
19,U7G U8G G9A U10C U11A C12G C13G,1.18
20,U7G U8C U10C U11C C12U C13U,1.11
21,U7G U8C U10C U11C C12U C13A,1.08
22,U7G U8C U10C U11C C12U C13G,1.12
23,U7G U8C U10G U11A C12U,1.22
24,U7G U8C U10G U11A C12A,1.15

row,Variant,aptazyme ON/OFF ratio
1,U7G U8C U10G U11A C12G,1.13
2,U7G U8C U11G C12G C13U,1.12
3,U7G U8C U11G C12G C13G,1.11
4,U7G U8C U11G C12G C13A,1.11
5,U7G U8C U10C U11A C13G,1.07
6,U7G U8C U10C U11A C13A,1.18
7,U7G U8C U10C U11A C13U,1.35
8,U7G U8C U10G U11A C12U C13G,1.15
9,U7G U8C U10G U11A C12U C13A,1.13
10,U7G U8C U10G U11A C12U C13U,1.17
11,U7G U8C U10G U11A C13U,1.19
12,U7G U8C U10G U11A C13G,1.13
13,U7G U8C U10G U11A C13A,1.16
14,U7G U8C U11G C12A,1.14
15,U7G U8C U11G C12G,1.22
16,U7G U8C U11G C12U,1.28
17,U7G U8G,1.29
18,U7G U8G G9A U10C U11C C13A,0.99
19,U7G U8G G9A U10C U11C C13U,1.01
20,U7G U8G G9A U10C U11C C13G,0.991
21,U7G U8C U10G C12G C13A,1.12
22,U7G U8C U10G C12G C13U,1.08
23,U7G U8C U10G C12G C13G,1.13
24,U7G U8C U11A C12A C13A,1.23

row,Variant,aptazyme ON/OFF ratio
1,U7G U8C U11A C12A C13G,1.1
2,U7G U8C U11A C12A C13U,1.25
3,U7G U8G G9A C12A C13A,1.32
4,U7G U8G G9A C12A C13G,1.11
5,U7G U8G G9A C12A C13U,1.49
6,U7G U8G G9A U10G C12A C13U,1.32
7,U7G U8G G9A U10G C12A C13G,1.07
8,U7G U8G G9A U10G C12A C13A,1.1
9,U7G U8G G9A U10G C12G,1.28
10,U7G U8G G9A U10G C12A,1.27
11,U7G U8G G9A U10G C12U,1.29
12,U7G U8G G9A U10C U11C C12A C13U,1.11
13,U7G U8G G9A U10C U11C C12A C13A,1.19
14,U7G U8G G9A U10C U11C C12A C13G,1.2
15,U7G U8C U10C U11G C12G C13A,1.13
16,U7G U8C U10C U11G C12G C13U,1.07
17,U7G U8C U10C U11G C12G C13G,1.08
18,U7G U8G G9A U10A U11C C12G,1.23
19,U7G U8G G9A U10A U11C C12A,1.21
20,U7G U8G G9A U10A U11C C12U,1.1
21,U7G U8G G9A U10C U11G C12A,1.15
22,U7G U8G G9A U10C U11G C12G,1.53
23,U7G U8G G9A U10C U11G C12U,1.34
24,U7G U8C U11A C12G C13G,1.07

row,Variant,aptazyme ON/OFF ratio
1,U7G U8C U11A C12G C13U,1.12
2,U7G U8C U11A C12G C13A,1.09
3,U7G U8C U10G U11A C12G C13G,1.21
4,U7G U8C U10G U11A C12G C13U,1.23
5,U7G U8C U10G U11A C12G C13A,1.09
6,U7G U8G G9A C13U,1.36
7,U7G U8G G9A C13A,1.5
8,U7G U8G G9A C13G,1.17
9,U7G U8G G9A U10A U11A C12A,1.19
10,U7G U8G G9A U10A U11A C12U,1.35
11,U7G U8G G9A U10A U11A C12G,1.16
12,U7G U8C U11A C13G,1.03
13,U7G U8C U11A C13A,1.14
14,U7G U8C U11A C13U,1.32
15,U7G U8G G9A U10A U11G,2.19
16,U7G U8G G9A U10A U11C,1.02
17,U7G U8G G9A U10A U11A,1.53
18,U7G U8C U10C U11G C13G,1.26
19,U7G U8C U10C U11G C13A,1.23
20,U7G U8C U10C U11G C13U,1.38
21,U7G U8C U11G C13A,1.29
22,U7G U8C U11G C13G,1.2
23,U7G U8C U11G C13U,1.17
24,U7G U8G G9A U10C C12A C13G,1.14

row,Variant,aptazyme ON/OFF ratio
1,U7G U8G G9A U10C C12A C13A,1.13
2,U7G U8G G9A U10C C12A C13U,1.32
3,U7G U8C U10G C13G,1.22
4,U7G U8C U10G C13U,1.24
5,U7G U8C U10G C13A,1.24
6,U7G U8G G9A U10C U11A C12U C13A,1.06
7,U7G U8G G9A U10C U11A C12U C13U,1.08
8,U7G U8G G9A U10C U11A C12U C13G,1.08
9,U7G U8C U11C C12G,1.38
10,U7G U8C U11C C12A,1.69
11,U7G U8C U11C C12U,1.57
12,U7G U8G G9A U10G,1.83
13,U7G U8G G9A U10C,3.59
14,U7G U8G G9A U10A,2.16
15,U7G U8G G9A U10C C13U,1.59
16,U7G U8G G9A U10C C13A,1.12
17,U7G U8G G9A U10C C13G,1.12
18,U7G U8G G9A U10C U11G C12A C13G,1.14
19,U7G U8G G9A U10C U11G C12A C13U,1.19
20,U7G U8G G9A U10C U11G C12A C13A,1.11
21,U7G U8G G9A U10C U11C C12G C13U,1.12
22,U7G U8G G9A U10C U11C C12G C13A,1.16
23,U7G U8G G9A U10C U11C C12G C13G,1.03
24,U7G U8G G9A U10A C12G,1.5

row,Variant,aptazyme ON/OFF ratio
1,U7G U8G G9A U10A C12U,1.52
2,U7G U8G G9A U10A C12A,1.46
3,U7G U8C U11C C12G C13U,1.46
4,U7G U8C U11C C12G C13G,1.11
5,U7G U8C U11C C12G C13A,1.32
6,U7G U8G G9A C12G C13A,1.14
7,U7G U8G G9A C12G C13G,1.14
8,U7G U8G G9A C12G C13U,1.3
9,U7G U8C U11C,1.53
10,U7G U8C U11G,1.01
11,U7G U8C U11A,1.39
12,U7G U8G C12A C13U,1.57
13,U7G U8G C12A C13A,1.31
14,U7G U8G C12A C13G,1.22
15,U7G U8C U11G C12A C13G,1.15
16,U7G U8C U11G C12A C13A,1.13
17,U7G U8C U11G C12A C13U,1.19
18,U7G U8C U11C C12A C13A,1.37
19,U7G U8C U11C C12A C13G,1.26
20,U7G U8C U11C C12A C13U,1.46
21,U7G U8G G9A U10C U11A C13U,1.2
22,U7G U8G G9A U10C U11A C13A,1.2
23,U7G U8G G9A U10C U11A C13G,1.1
